Target: KPNA2 (Homo sapiens, UniProt P52292)
Test: MST

Binder | Kd
KLVFF [FF-T nucleopeptide] | ~31.1 µM
KLVFFVKRKKKP [NLS-FF-T nucleopeptide] | ~1.16 µM
